Measured values published in paper PMC6205457.

Assays:
MCL1 = MCL1 (UniProt P97287); assay: SPR
[1] = target: biotinylated mouse MCL1 (amino acids 152-308) (mouse) (UniProt P97287); assay: SPR

| Kd (MCL1) | Kd [1] | Substance |
| --- | --- | --- |
| < 0.16 nM |  | rPUMA (redesigned PUMA peptide: A139tBu, Q140Y, A144Cha, A145G, Y152Bzt) |
|  | 7 nM | PUMA27 I137tBu (peptide) |
| 4 nM |  | PUMA 27-aa wild-type peptide (pseudo wild-type, M144A) |
